# Bridges are numbered along the chain shown (N, C = ends). Where no end group is shown, it is not given here. [ ]: non-standard residue; d: D form. Hyp = O=C(O)[C@@H]1C[C@@H](O)CN1
# B1: IVGG.14 peptide (peptide)
# peptide: IVGGYPWWMDV-NH2
# notes: Synthetic peptide; also called possibly ZAP.14
# B2: IVdG.14 peptide (peptide)
# peptide: IV[dD]GYPWWMDV-NH2
# notes: Printed as I V d G Y P W W M D V, d = D-aspartic acid
# B3: IVDG.14 peptide (peptide)
# peptide: IVDGYPWWMDV-NH2
# B4: IIhyP.14 peptide (peptide)
# peptide: IIGGY[Hyp]WWMDV-NH2
# notes: Printed as I I G G Y hyP W W M D V
# B5: IVGD.14 peptide (peptide)
# peptide: IVGDYPWWMDV-NH2
# B6: IVDD.14 peptide (peptide)
# peptide: IVDDYPWWMDV-NH2
# B7: ZAP.18 phage clone (ZAPtide Library) (peptide)
# chain: IVGGFVFWCDQ
# modifications: not fully specified
# notes: not shown: M13 gene VIII coat protein fused after the peptide
# B8: ZAP.25 phage clone (ZAPtide Library) (peptide)
# chain: IVGGNKIWSVS
# modifications: not fully specified
# notes: as for B7
# B9: IVhyP.14 peptide (peptide)
# peptide: IVGGY[Hyp]WWMDV-NH2
# notes: Printed as I V G G Y hyP W W M D V
# B10: ZAP.50 phage clone (ZAPtide Library) (peptide)
# chain: IVGGDYYWVVQ
# modifications: not fully specified
# notes: as for B7
# B11: ZAP.03 (peptide)
# 15-mer peptide displayed on the N-terminus of M13 gene VIII: IIGGCPYWMDREECI
# modifications: disulfide 5-14
# B12: IVGG.14 P6A variant (peptide)
# peptide: IVGGYAWWMDV-NH2
# B13: IVGG.14 W8A variant (peptide)
# peptide: IVGGYPWAMDV-NH2
# B14: ZAP.03S peptide (peptide)
# peptide: IIGGSPYWMDREESI-NH2
# notes: ZAP.03 with both cysteines changed to serine; no disulfide
# B15: ZAP.03 (cyclic 15-mer synthetic peptide) (peptide)
# peptide: IIGGCPYWMDREECI-NH2
# modifications: disulfide 5-14
# notes: also called ZAP2.3; ZAP.-3
# B16: ZAP.01 (linear 15-mer synthetic peptide) (peptide)
# peptide: IIGGDPYWVPHPGDA-NH2
# B17: ZAP.45 phage clone (ZAPtide Library) (peptide)
# chain: IVGGKWQRKRV
# modifications: not fully specified
# notes: as for B7
# How the values were obtained:
# [1] = system: IVGG.147A peptide
# [2] = target: scHGF (non-cleavable form of full-length pro-HGF with a mutated cleavage site) (human, UniProt P14210 32-728); assay: cell-based or functional assay
# scHGF (non-cleavable form of full-length pro-HGF with a mutated cleavage site), sequence (P14210 32-728 limits assumed, stated change not applied): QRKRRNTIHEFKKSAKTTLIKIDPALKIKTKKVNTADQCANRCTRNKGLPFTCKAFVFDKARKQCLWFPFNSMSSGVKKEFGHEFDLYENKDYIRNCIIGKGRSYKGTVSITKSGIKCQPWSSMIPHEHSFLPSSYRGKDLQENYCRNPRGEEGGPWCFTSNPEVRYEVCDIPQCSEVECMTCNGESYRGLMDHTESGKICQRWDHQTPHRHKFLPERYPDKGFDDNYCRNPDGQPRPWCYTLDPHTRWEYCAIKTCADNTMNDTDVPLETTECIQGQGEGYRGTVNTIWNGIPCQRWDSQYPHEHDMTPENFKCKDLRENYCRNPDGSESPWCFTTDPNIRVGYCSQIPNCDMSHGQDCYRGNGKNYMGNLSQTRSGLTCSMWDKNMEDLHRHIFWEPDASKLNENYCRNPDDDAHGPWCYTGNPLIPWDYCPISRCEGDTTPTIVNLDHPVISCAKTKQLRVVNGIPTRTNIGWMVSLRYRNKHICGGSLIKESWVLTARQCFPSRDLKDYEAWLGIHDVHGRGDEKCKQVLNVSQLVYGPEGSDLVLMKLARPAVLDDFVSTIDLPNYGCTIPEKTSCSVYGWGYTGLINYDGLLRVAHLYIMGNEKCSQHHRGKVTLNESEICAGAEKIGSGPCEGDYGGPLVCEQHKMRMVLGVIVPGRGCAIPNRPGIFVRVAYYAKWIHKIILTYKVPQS
# [3] = target: T1, scHGF β-chain (zymogen-like HGF β, residues Asn479 to Ser728, R494E, C-terminal His-tag) (human, UniProt P14210 479-728); assay: BLI scHGF β activation/Met binding assay
# T1 construct: Expressed in insect cells; also called zHGF β; zymogen-like form of HGF β; not shown: C-terminal His-tag
# T1 sequence (P14210 479-728 R494E): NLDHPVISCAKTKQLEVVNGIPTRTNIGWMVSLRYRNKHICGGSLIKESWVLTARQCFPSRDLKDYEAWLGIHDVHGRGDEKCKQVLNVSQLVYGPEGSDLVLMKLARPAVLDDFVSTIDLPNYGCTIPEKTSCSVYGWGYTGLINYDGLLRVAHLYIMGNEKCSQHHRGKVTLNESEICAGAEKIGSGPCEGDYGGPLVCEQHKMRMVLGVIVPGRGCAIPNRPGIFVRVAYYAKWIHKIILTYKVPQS
# [4] = target: T1, scHGF β-chain (zymogen-like HGF β, …); assay: BLI, peptide-dependent activation of zHGF β binding to surface immobilized Met ECD
# Protocol: (§1) Met binding assays were carried out utilizing the OctetRed™ biolayer interferometry instrument (ForteBio, Inc.) as reported previously (Landgraf, K. E. et al. (2010) J Biol Chem 285: 40362-72). Biotinylated Met ECD (Sema/PSI-AviTag) was captured on the surface of streptavidin optical sensor tips (SA biosensors, ForteBio, Inc.), and transferred into buffer containing 0.5 μM scHGF β-chain variants in the presence of increasing concentration of indicated peptides. Association and dissociation reactions were monitored to ensure reversible binding between scHGF β and Met. Binding was quantified using the steady-state levels of surface response from the association reaction. Equilibrium constants were derived by least squares fitting of the titration data to a single-site binding equation. Errors reported are ±stdev of n=3 independent experiments.
# [5] = target: T1, scHGF β-chain (zymogen-like HGF β, …); assay: BLI (OctetRed) scHGF β activation/Met binding assay: peptide titrated into 0.5 µM scHGF β over biotinylated Met Sema/PSI on streptavidin tips; steady-state single-site fit
# Protocol: as §1
# Based on the finding that the consensus ZAPs contain features consistent with binding and inserting into the activation pocket, several related peptides were synthesized and utilized in a previously established scHGF β activation assay to assess their affinities and ability to active Met binding (Landgraf, K. E. et al. (2010) J Biol Chem 285: 40362-72). Since scHGF β can only weakly interact with the Met Sema-PSI domain compared to the active HGF β form, biolayer interferometry was used in the activation assay to measure the ability of a peptide to directly enhance the binding affinity of scHGF β to a streptavidin sensor surface coated with biotinylated Met (Landgraf, K. E. et al. (2010) J Biol Chem 285: 40362-72). Thus, titration of an activator peptide should result in a significant increase in the surface response signal due to enhanced scHGF β binding to Met.
# [6] = target: T1, scHGF β-chain (zymogen-like HGF β, …); assay: biolayer interferometry: biotinylated Met Sema/PSI on streptavidin tips, 0.5 µM scHGF β in solution, peptide titrated; steady-state surface response of scHGF β binding to Met
# Protocol: as §1
# Based on the finding that the consensus ZAPs contain features consistent with binding and inserting into the activation pocket, several related peptides were synthesized and utilized in a previously established scHGF β activation assay to assess their affinities and ability to active Met binding (Landgraf, K. E. et al. (2010) J Biol Chem 285: 40362-72). […]
# [7] = target: T1, scHGF β-chain (zymogen-like HGF β, …); assay: phage panning against scHGF β (4 rounds) and phage ELISA
# Source text: The pfam database (Finn, R. D. et al. (2010) Nucleic Acids Res 38: D211-22) was used to derive a consensus sequence for trypsin/chymotrypsin-like serine proteases and identify the N-terminal IVGG motif. Peptide libraries were synthesized as fusions to the gene VIII coat protein of M13 phage and panned against scHGF β as previously described (Tonikian, R. et al. (2007) Nat Protoc 2: 1368-86; Sidhu, S. S. et al. (2000) Methods Enzymol. 328:333-63). […] Single phage clones were picked, grown overnight and a standard phage ELISA was used to verify target specific binding. Once the IVGG.14 sequence was identified, soft randomization on gene VIII was performed on positions X₂-X₁₁.
# [8] = target: T1, scHGF β-chain (zymogen-like HGF β, …); assay: activity-based phage sorting: library with 0.5 µM scHGF β in solution, complex captured on a Met Sema-PSI coated plate; the clones as a group are plotted in FIG. 9B
# Protocol: Where activity-based sorting was conducted, the phage library was incubated in solution with 0.5 μM scHGF β at 4° C. then the mixture was applied to a Maxi-Sorp plate coated with 5 μg/ml Met Sema-PSI ECD protein for capture of activated complex. To analyze phage clones from the activity-based sorting two ELISAs were carried out separately to analyze binding and activity. The first ELISA measured direct phage binding to wells coated with 5 μg/ml scHGF β relative to a BSA control. The second activity ELISA measured phage binding to wells coated with 5 μg/ml Met in the presence or absence (negative control) of 0.5 μM scHGF β in solution. The data from these two ELISAs were plotted with direct binding on the y-axis and Met capture (activity) on the x-axis.
# The new 15-mer ZAP-gene VIII phage library contained two main regions that were preferentially shielded from hard-randomization, the N-terminal motif which inserted into the activation pocket and a portion of the reverse turn motif that packs against the protein surface in the bound state (FIG. 8A). […] Phage clones from the solution sort and activity-based sort were sequenced and subjected to a 2-dimensional ELISA analysis, where the clones were analyzed for (i) direct scHGF β binding and (ii) the ability of phage clones to be captured by Met only in the presence of scHGF β.
# [9] = target: T1, scHGF β-chain (zymogen-like HGF β, …); assay: cell-based or functional assay
molecule,measurement,setting,value
prethrombin-2,"initial rate of hydrolysis (Vi) of Ile-Pro-Arg-pNA, 100 nM enzyme, 2 mM substrate",[1],the initial rate of substrate hydrolysis (Vi) for both prethrombin-2 and Protein C zymogens significantly increased upon titration of IVGG.147A into the reaction
Protein C (zymogen),"initial rate of hydrolysis (Vi) of Ile-Pro-Arg-pNA, 100 nM enzyme, 2 mM substrate",[1],the initial rate of substrate hydrolysis (Vi) for both prethrombin-2 and Protein C zymogens significantly increased upon titration of IVGG.147A into the reaction
B1,"EC50, BxPC-3 cell survival assay, peptide titrated with scHGF",[2],~20 µM
same,fold more potent than the peptides derived from the native N-terminus of the β-chain of HGF,[3],~60 fold
same,fold improvement over previous activators,[4],> 90 fold
same,Kd,[5],34 µM
B2,"EC50, BxPC-3 cell survival assay, peptide titrated with scHGF",[2],~20 µM
same,fold better than peptides previously described,[3],100 fold
same,Kd,[5],21 µM
B3,Kd,[5],85 µM
B4,fold better than IVGG.14,[3],7 fold
same,fold better than the previously described peptide activators,[3],> 400 fold
same,Kd,[5],5 µM
B5,binding result,[6],no binding
B6,binding result,[6],no binding (tested: about 125 µM)
B7,binding result,[7],binds
B8,binding result,[7],binds
B9,fold enhancement relative to IVGG.14,[3],2 fold
same,Kd,[5],14 µM
B10,binding result,[7],binds
B11,binding result,[8],binds
B12,"activity (alanine scanning of the YPWWM turn motif), loss against IVGG.14",[9],25 fold
B13,"activity (alanine scanning of the YPWWM turn motif), loss against IVGG.14",[9],10 fold
B14,Kd,[5],59 µM
B15,"EC50, HeLa cell migration in an in vitro wound closure assay",[2],0.06 µM
same,"EC50, cell survival of BxPC3 cells during serum starvation",[2],0.4 µM
same,fold improvement relative to IVGG.14,[3],~100 fold
same,Kd,[5],0.3 µM
B16,Kd,[5],6 µM
B17,binding result,[7],binds

# From patent US20130096072A1 (Genentech, published 2013)
